Test results as given in patent US20200040086A1 (BERLIN CHEMIE, published 2020).

How the values were obtained:
Experiment in all cases: peptide microarray of 8mer LY75 peptides, LY75_A1 at 1 µg/mL, anti-human IgG Alexa 647
YKSDQALH = target: T1, YKSDQALH
T1 construct: 8mer of LY75 on the peptide microarray, chart Region 10
T1 peptide: YKSDQALH
Procedure: (§1) The peptide microarray analysis was performed by LC Sciences, Houston Tex., in brief the method comprised the following steps:—Contiguous 8mer peptides of LY75 protein having […] spanning residues 216 to 1666 of the full length LY75 protein were synthesized and immobilized on a microarray chip. The chip comprised three panels such that the experiment was performed in triplicate. The microarray was addressed with LY75_A1 to identify the peptides to which the antibody bound. The binding assay was performed under the following conditions:—
(§2) The microarray comprising the contiguous peptides in triplicate was washed with 1 mL of binding buffer at 4° C. for 20 min. It was then incubated with 1 μg/mL LY75_A1 in binding buffer (pH 7.0) at 4° C. for 2 hrs. The array was again washed with 0.5 mL of washing buffer at 4° C. for 30 min then incubated with 25 ng/mL anti-human IgG Alexa 647 conjugate in binding buffer (pH 7.0) at 4° C. for 1 hr. The array was again washed with 0.5 mL of washing buffer at 4° C. for 30 min.

SCYKVFHA = target: T2, SCYKVFHA
T2 construct: 8mer of LY75 on the peptide microarray, chart Region 2
T2 peptide: SCYKVFHA
Procedure: as §1, §2

PWRRGWHF = target: T3, PWRRGWHF
T3 construct: 8mer of LY75 on the peptide microarray, chart Region 3
T3 peptide: PWRRGWHF
Procedure: as §1, §2

DREFIYLR = target: T4, DREFIYLR
T4 construct: 8mer of LY75 on the peptide microarray, chart Region 3
T4 peptide: DREFIYLR
Procedure: as §1, §2

PIDDHFTY = target: T5, PIDDHFTY
T5 construct: 8mer of LY75 on the peptide microarray, chart Region 4
T5 peptide: PIDDHFTY
Procedure: as §1, §2

DDHFTYSR = target: T6, DDHFTYSR
T6 construct: 8mer of LY75 on the peptide microarray, chart Region 4
T6 peptide: DDHFTYSR
Procedure: as §1, §2

RYPWHRFP = target: T7, RYPWHRFP
T7 construct: 8mer of LY75 on the peptide microarray, chart Region 4
T7 peptide: RYPWHRFP
Procedure: as §1, §2

YPWHRFPV = target: T8, YPWHRFPV
T8 construct: 8mer of LY75 on the peptide microarray, chart Region 4
T8 peptide: YPWHRFPV
Procedure: as §1, §2

HRFPVTFG = target: T9, HRFPVTFG
T9 construct: 8mer of LY75 on the peptide microarray, chart Region 4
T9 peptide: HRFPVTFG
Procedure: as §1, §2

RELTYSNF = target: T10, RELTYSNF
T10 construct: 8mer of LY75 on the peptide microarray, chart Region 5
T10 peptide: RELTYSNF
Procedure: as §1, §2

ELTYSNFH = target: T11, ELTYSNFH
T11 construct: 8mer of LY75 on the peptide microarray, chart Region 5
T11 peptide: ELTYSNFH
Procedure: as §1, §2

TYSNFHPL = target: T12, TYSNFHPL
T12 construct: 8mer of LY75 on the peptide microarray, chart Region 5
T12 peptide: TYSNFHPL
Procedure: as §1, §2

SCSERHFV = target: T13, SCSERHFV
T13 construct: 8mer of LY75 on the peptide microarray, chart Region 6
T13 peptide: SCSERHFV
Procedure: as §1, §2

LNNLYKII = target: T14, LNNLYKII
T14 construct: 8mer of LY75 on the peptide microarray, chart Region 7
T14 peptide: LNNLYKII
Procedure: as §1, §2

EAVYFHQH = target: T15, EAVYFHQH
T15 construct: 8mer of LY75 on the peptide microarray, chart Region 8
T15 peptide: EAVYFHQH
Procedure: as §1, §2

VYFHQHSI = target: T16, VYFHQHSI
T16 construct: 8mer of LY75 on the peptide microarray, chart Region 8
T16 peptide: VYFHQHSI
Procedure: as §1, §2

YFHQHSIL = target: T17, YFHQHSIL
T17 construct: 8mer of LY75 on the peptide microarray, chart Region 8
T17 peptide: YFHQHSIL
Procedure: as §1, §2

KKLSRLTY = target: T18, KKLSRLTY
T18 construct: 8mer of LY75 on the peptide microarray, chart Region 9
T18 peptide: KKLSRLTY
Procedure: as §1, §2

KLSRLTYS = target: T19, KLSRLTYS
T19 construct: 8mer of LY75 on the peptide microarray, chart Region 9
T19 peptide: KLSRLTYS
Procedure: as §1, §2

LSRLTYSS = target: T20, LSRLTYSS
T20 construct: 8mer of LY75 on the peptide microarray, chart Region 9
T20 peptide: LSRLTYSS
Procedure: as §1, §2

SLSCYKVF = target: T21, SLSCYKVF
T21 construct: 8mer of LY75 on the peptide microarray, chart Region 2
T21 peptide: SLSCYKVF
Procedure: as §1, §2

QYKGHCYK = target: T22, QYKGHCYK
T22 construct: 8mer of LY75 on the peptide microarray, chart Region 10
T22 peptide: QYKGHCYK
Procedure: as §1, §2

YKGHCYKS = target: T23, YKGHCYKS
T23 construct: 8mer of LY75 on the peptide microarray, chart Region 10
T23 peptide: YKGHCYKS
Procedure: as §1, §2

Measured: binding result

B1: LY75_A1 (antibody, V domains shown)
VH: EVQLVESGGGLVKPGGSLRLSCAASGFTYSNAWMSWVRQAPGKGLEWVGRIKSKTDGGTTDYAAPVQGRFTISRDDSKNTLYLQMNSLKTEDTAVYYCTIFGVVSFDYWGQGTLVTVSS
VL: DVQMTQSPSSLSASVGDRVTITCRASQSISDYLSWYQQRPGKAPNLLIYAASNLKTGVPSRFSGSGSGTDFTLTISTLQPEDFATYYCQQSYRSPWTFGQGTKVEIKR
notes: detected with anti-human IgG in the microarray; also called antibody LY75_A1; LY75_A1 monoclonal antibody
binds: all assays above
